Data: patent publication US20180243244A1
Read-outs that look alike come from different tables or passages of the source. No end group written: not given here.

Legend:
p62-D3-GST, Q13501 [1] = target: p62-D3-GST, Q13501
p62-D3-GST, Q13501 [2] = test: SPR (Biacore), legend of FIG. 6
[3] = target: p62 (Homo sapiens (Human)), Q13501; test: X-peptide pull down of in vitro transcribed and translated p62, Western blot
p62-D3-GST, Q13501 [4] = target: p62-D3-GST, Q13501; remark: listed apart in the source

| Binder | Kd (p62-D3-GST, Q13501 [1]) [nM] | koff (p62-D3-GST, Q13501 [1]) [s⁻¹] | kon (p62-D3-GST, Q13501 [1]) [M⁻¹ s⁻¹] | Kd (p62-D3-GST, Q13501 [2]) [nM] | efficiency of precipitating p62 [3] [%] | fold binding force against N-recognins containing a URB box (p62-D3-GST, Q13501 [4]) [times] | Kd (p62-D3-GST, Q13501 [4]) [µM] |
| --- | --- | --- | --- | --- | --- | --- | --- |
| RIFSTIEGRTYK (not fully specified) [R11 peptide (biotin-labeled X-peptide with N-terminal Arg)] | 44 | 0.0005 | 12300 | 40 | > 40 | 50 | – |
| FIFSTIEGRTY (not fully specified) [F11 peptide (biotin-labeled X-peptide with N-terminal Phe)] | 3440 | 0.0019 | 550 | – | 5 | – | 3.4 |
